Earlier results, collected in PMC4359947.

Target: CAR D1 (Homo sapiens) (UniProt P78310)

Sequence of CAR D1 (P78310 20-134): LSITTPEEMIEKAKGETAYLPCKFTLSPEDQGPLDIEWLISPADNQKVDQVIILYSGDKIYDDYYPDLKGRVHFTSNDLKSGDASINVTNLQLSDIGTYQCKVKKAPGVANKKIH

Kd: 16 µM
Substance: CAR D1 (from UniProt P78310)
